± gives the uncertainty stated by the source.
Test: self-splicing fitness, log relative to wild type (ln ratio); higher = more splicing; Tetrahymena group I intron in knt gene, E. coli kanamycin selection, DiMSum; sequences stand for … in CUCUCU…GGAGGGAAAAGUUAUCAGGCAUGCACCUGGUAGCUAGUCUUUAAACCAAUAGAUUGCAUCGGUUUAAAAGGCAAGACCGUCAAAUUGCGGGAAAGGGGUCAACAGCCGUUCAGUACCAAGUCUCAGGGGAAACUUUGAGAUGGCCUUGCAAAGGGUAUGGUAAUAAGCUGACGGACAUGGUCCUAACCACGCAGCCAAGUCCUAAGUCAACAGAUCUUCUGUUGAUAUGGAUGCAGUUCACAGACUAAAUGUCGGUCGGGGAAGAUGUAUUCUUCUCAUAAGAUAUAGUCGGACCUCUCCUUAAUGGGAGCUAGCGGAUGAAGUGAUGCAACACUGGAGCCGCUGGGAACUAAUUUGUAUGCGAAAGUAUAUUGAUUAGUUUUGGAGUACUCGUGGUCG
In short: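 Six replicate transformations of E. coli BL21(DE3) with a pET-22b(+) library were grown overnight at 37°C or 30°C. The library randomised all eight P1ex-region intron nucleotides, the intron lying in the knt kanamycin-resistance gene, and plates were LB agar with or without 25 μg/mL kanamycin plus 100 μg/mL carbenicillin, 50 μM IPTG and 0.2% rhamnose. Pooled colonies were amplicon-sequenced on an Illumina HiSeq 2500, and fitness is the DiMSum error-weighted combination of wild-type-normalised replicate fold changes, kanamycin versus none.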

Sequence | self-splicing fitness (ln) (30 °C) | self-splicing fitness (ln) (37 °C)
CUUCAGCAAUAUUACGACAG | -0.695 ± 0.069 | -0.281 ± 0.093
CUUCAGCAAUAUUACGGAUA | -1.97 ± 0.12 | -0.695 ± 0.11
UGUUAGCAAUAUUACGGGUA | -0.939 ± 0.15 | -1.4 ± 0.16
UCUAAGCAAUAUUACGCUAC | – | -1.73 ± 0.45
AGAAAGCAAUAUUACGGCCA | -0.632 ± 0.096 | -0.181 ± 0.13
ACCCAGCAAUAUUACGUUCC | -2.32 ± 0.11 | -1.02 ± 0.14
CUGCAGCAAUAUUACGUGUA | -3.82 ± 0.23 | -2.63 ± 0.16
ACAAAGCAAUAUUACGAAAU | -3.02 ± 0.13 | -1.42 ± 0.12
CUGAAGCAAUAUUACGUGCU | -4.66 ± 0.34 | -2.95 ± 0.34
UGUUAGCAAUAUUACGUACC | -0.945 ± 0.14 | 0.399 ± 0.17
GCUUAGCAAUAUUACGCUGG | – | -2.13 ± 0.3
AUCCAGCAAUAUUACGCAGG | -2.84 ± 0.3 | -2.7 ± 0.37
CGCUAGCAAUAUUACGUAGC | -3.14 ± 0.31 | -1.68 ± 0.37
ACAUAGCAAUAUUACGGAUA | -1.75 ± 0.17 | -2.34 ± 0.21
CGGUAGCAAUAUUACGUAUU | -2 ± 0.32 | -2.16 ± 0.27
GACUAGCAAUAUUACGUCUG | -3.86 ± 0.25 | -1.57 ± 0.23
CGCUAGCAAUAUUACGUGGG | -3.6 ± 0.17 | -2.74 ± 0.21
CUUUAGCAAUAUUACGUCUC | -2.64 ± 0.24 | -3.21 ± 0.3
UUCGAGCAAUAUUACGGCGG | -1.3 ± 0.095 | -0.639 ± 0.12
CCUUAGCAAUAUUACGAUCU | -4.14 ± 0.39 | -2.88 ± 0.2
UGAAAGCAAUAUUACGCAAA | -2.12 ± 0.11 | -0.812 ± 0.11
GGCAAGCAAUAUUACGCCUG | – | -0.621 ± 0.47
AUGGAGCAAUAUUACGAAUG | -3.6 ± 0.34 | -2.35 ± 0.18
AAUAAGCAAUAUUACGCUGA | -1.81 ± 0.17 | -1.63 ± 0.18
UAGCAGCAAUAUUACGUCCC | -3.06 ± 0.41 | -1.7 ± 0.4
GAUUAGCAAUAUUACGAUGA | -1.8 ± 0.13 | 0.00201 ± 0.11
GUUCAGCAAUAUUACGUUUG | -2.75 ± 0.15 | -1.22 ± 0.14

Sequence | self-splicing fitness (ln) (30 °C) | self-splicing fitness (ln) (37 °C)
GUGAAGCAAUAUUACGUGGU | -4.17 ± 0.24 | -1.61 ± 0.14
UUACAGCAAUAUUACGAUGA | -0.445 ± 0.06 | 0.596 ± 0.078
AUAGAGCAAUAUUACGCGUU | -1.47 ± 0.12 | -0.672 ± 0.13
AAGGAGCAAUAUUACGAUCC | – | 0.127 ± 0.31
AGUGAGCAAUAUUACGCUAC | -2.96 ± 0.16 | -2.3 ± 0.23
ACACAGCAAUAUUACGGAAA | -3.13 ± 0.26 | -2.5 ± 0.22
AGUCAGCAAUAUUACGCUCC | -0.39 ± 0.17 | -0.919 ± 0.16
CGGGAGCAAUAUUACGUUGU | -4.45 ± 0.29 | -2.65 ± 0.26
UGAAAGCAAUAUUACGGACC | -0.608 ± 0.13 | -0.126 ± 0.16
CUAUAGCAAUAUUACGAUUU | – | -0.748 ± 0.28
UAAGAGCAAUAUUACGUCCG | -3.27 ± 0.41 | –
CCGUAGCAAUAUUACGCCGU | -3 ± 0.44 | -2.16 ± 0.27
UUUCAGCAAUAUUACGGUAA | -0.255 ± 0.1 | -0.168 ± 0.084
GGCGAGCAAUAUUACGACAG | -3.57 ± 0.32 | –
AUUGAGCAAUAUUACGAGAA | -2.35 ± 0.45 | -2.62 ± 0.26
CGACAGCAAUAUUACGCCAG | -1.73 ± 0.11 | -0.84 ± 0.13
GACUAGCAAUAUUACGGCCA | -0.241 ± 0.16 | -0.327 ± 0.26
AUUUAGCAAUAUUACGUCCC | -0.0323 ± 0.37 | -0.682 ± 0.42
CCUUAGCAAUAUUACGAUUA | -2.28 ± 0.28 | -2.61 ± 0.32
ACCAAGCAAUAUUACGCUCU | -0.714 ± 0.06 | -0.02 ± 0.073
GGAUAGCAAUAUUACGCAAU | -1.83 ± 0.41 | -0.704 ± 0.23
GUCAAGCAAUAUUACGGAUC | -2.77 ± 0.1 | -1.09 ± 0.093
UACUAGCAAUAUUACGAUUA | -0.867 ± 0.13 | 0.62 ± 0.16
ACCUAGCAAUAUUACGAAAU | -2.9 ± 0.16 | -0.321 ± 0.15
GCCGAGCAAUAUUACGAAUA | – | -1.51 ± 0.47
CUCGAGCAAUAUUACGCAAU | -3.57 ± 0.2 | –
CAUGAGCAAUAUUACGAGCA | -3.68 ± 0.31 | -2.56 ± 0.23

Sequence | self-splicing fitness (ln) (30 °C) | self-splicing fitness (ln) (37 °C)
GUUUAGCAAUAUUACGGGUC | -3.6 ± 0.47 | -1.73 ± 0.2
GCGGAGCAAUAUUACGUCUG | -3.82 ± 0.42 | -2.44 ± 0.41
AGUCAGCAAUAUUACGUACU | -1.92 ± 0.13 | -0.881 ± 0.13
CCUAAGCAAUAUUACGCUGG | -4.1 ± 0.32 | -2.48 ± 0.25
UUGGAGCAAUAUUACGCUUU | -2.75 ± 0.23 | -2.3 ± 0.5
CCGCAGCAAUAUUACGAGUA | -3.31 ± 0.24 | -2.82 ± 0.28
UAGGAGCAAUAUUACGGAAU | -4.06 ± 0.36 | -2.51 ± 0.33
GUUUAGCAAUAUUACGUGAU | -0.892 ± 0.17 | -0.419 ± 0.12
CCAAAGCAAUAUUACGACAU | -3.658 ± 0.02 | -2.82 ± 0.037
GGGCAGCAAUAUUACGGCGC | -0.77 ± 0.11 | 0.0143 ± 0.14
GCUCAGCAAUAUUACGAGGU | -1.06 ± 0.12 | -2.08 ± 0.23
GUGCAGCAAUAUUACGGAGG | -3.96 ± 0.22 | -2.55 ± 0.25
CGCUAGCAAUAUUACGCCUG | 0.202 ± 0.13 | 0.152 ± 0.16
GAUCAGCAAUAUUACGCUAC | -3.38 ± 0.48 | -1.62 ± 0.29
CGGCAGCAAUAUUACGUCAA | -1.53 ± 0.11 | -1.43 ± 0.13
AUAUAGCAAUAUUACGUUAA | -2.76 ± 0.23 | -3.36 ± 0.37
UUAUAGCAAUAUUACGGCGC | -0.766 ± 0.18 | -0.308 ± 0.17
UUAGAGCAAUAUUACGCCAU | -2.82 ± 0.32 | –
UUCGAGCAAUAUUACGUACG | -3.15 ± 0.38 | –
CAUUAGCAAUAUUACGGCUC | -3.78 ± 0.28 | -1.39 ± 0.18
CGUCAGCAAUAUUACGCGUA | -1.93 ± 0.18 | -0.985 ± 0.12
AAAGAGCAAUAUUACGAGCU | – | -2.09 ± 0.28
UUAGAGCAAUAUUACGGCAG | -1.01 ± 0.18 | -0.707 ± 0.24
ACCAAGCAAUAUUACGGGAA | -2.85 ± 0.13 | -2.19 ± 0.1
CGUAAGCAAUAUUACGCCAG | -2.15 ± 0.15 | -0.931 ± 0.18
CUAGAGCAAUAUUACGCUCC | -2.45 ± 0.42 | –

— the supplement of paper PMC7877785
